Measured values reported in article PMC2169463.

Target: GST-BLM fusion protein (human), P54132
Test: pull-down
Conditions: remark: other sources report otherwise

Chain of GST-BLM fusion protein (human), P54132 (P54132 whole entry, the tested form may be a part): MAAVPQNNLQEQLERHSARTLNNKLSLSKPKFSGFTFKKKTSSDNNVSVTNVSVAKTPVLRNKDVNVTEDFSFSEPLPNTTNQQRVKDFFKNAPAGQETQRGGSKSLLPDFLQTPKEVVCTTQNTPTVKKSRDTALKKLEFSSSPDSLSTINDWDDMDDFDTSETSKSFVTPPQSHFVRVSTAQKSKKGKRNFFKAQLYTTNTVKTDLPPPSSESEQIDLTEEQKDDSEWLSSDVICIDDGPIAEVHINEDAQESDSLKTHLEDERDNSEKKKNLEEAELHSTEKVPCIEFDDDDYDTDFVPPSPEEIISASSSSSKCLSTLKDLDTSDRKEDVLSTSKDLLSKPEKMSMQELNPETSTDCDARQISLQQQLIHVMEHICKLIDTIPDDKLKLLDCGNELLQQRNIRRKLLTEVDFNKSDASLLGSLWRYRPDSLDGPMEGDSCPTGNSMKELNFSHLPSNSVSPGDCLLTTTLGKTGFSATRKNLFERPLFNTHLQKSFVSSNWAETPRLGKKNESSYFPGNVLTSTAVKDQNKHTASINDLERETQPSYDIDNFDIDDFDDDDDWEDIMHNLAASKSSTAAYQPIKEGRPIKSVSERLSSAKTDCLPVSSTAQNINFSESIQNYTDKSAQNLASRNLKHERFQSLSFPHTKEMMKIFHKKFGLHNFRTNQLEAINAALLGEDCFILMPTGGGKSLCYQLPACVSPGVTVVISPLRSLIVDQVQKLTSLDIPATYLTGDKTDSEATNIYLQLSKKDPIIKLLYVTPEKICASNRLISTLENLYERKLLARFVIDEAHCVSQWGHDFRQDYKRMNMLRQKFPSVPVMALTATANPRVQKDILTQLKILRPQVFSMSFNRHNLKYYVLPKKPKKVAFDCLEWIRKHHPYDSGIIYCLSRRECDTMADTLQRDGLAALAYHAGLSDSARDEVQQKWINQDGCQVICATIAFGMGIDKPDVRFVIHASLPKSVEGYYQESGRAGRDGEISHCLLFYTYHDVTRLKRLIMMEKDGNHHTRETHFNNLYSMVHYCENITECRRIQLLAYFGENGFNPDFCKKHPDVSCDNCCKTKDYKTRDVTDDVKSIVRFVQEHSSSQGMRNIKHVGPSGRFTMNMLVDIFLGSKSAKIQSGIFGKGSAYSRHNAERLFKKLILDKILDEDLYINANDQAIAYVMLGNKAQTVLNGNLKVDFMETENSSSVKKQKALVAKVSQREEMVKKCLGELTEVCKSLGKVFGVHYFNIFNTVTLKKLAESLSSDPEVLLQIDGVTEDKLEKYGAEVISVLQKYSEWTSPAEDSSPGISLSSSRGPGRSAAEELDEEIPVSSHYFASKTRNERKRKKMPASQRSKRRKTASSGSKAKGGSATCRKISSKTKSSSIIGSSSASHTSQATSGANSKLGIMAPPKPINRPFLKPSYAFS

B1: hRAD51, Q06609 1-339 (natural protein)
chain: MAMQMQLEANADTSVEEESFGPQPISRLEQCGINANDVKKLEEAGFHTVEAVAYAPKKELINIKGISEAKADKILAEAAKLVPMGFTTATEFHQRRSEIIQITTGSKELDKLLQGGIETGSITEMFGEFRTGKTQICHTLAVTCQLPIDRGGGEGKAMYIDTEGTFRPERLLAVAERYGLSGSDVLDNVAYARAFNTDHQTQLLYQASAMMVESRYALLIVDSATALYRTDYSGRGELSARQMHLARFLRMLLRLADEFGVAVVITNQVVAQVDGAAMFAADPKKPIGGNIIAHASTTRLYLRKGRGETRICKIYDSPCLPEAEAMFAINADGVGDAKD
Question: With B1 as the binder, how does the percent of the hRAD51 in the lysate retained read?
Answer: 30 to 40%
